In PMC10397247:

How the values were obtained:
4H3592-bA = target: T1, 4H3592-bA; assay: two-hybrid library CCNG1;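 also: natural log of median RNA to DNA barcode read ratio; higher means stronger binding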
T1 chain: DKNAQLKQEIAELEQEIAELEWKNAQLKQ

4H3601-bA = target: T2, 4H3601-bA; assay: two-hybrid library CCNG1;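 also: natural log of median RNA to DNA barcode read ratio; higher means stronger binding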
T2 chain: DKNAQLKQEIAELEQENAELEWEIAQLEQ

4H4038-bA = target: T3, 4H4038-bA; assay: two-hybrid library CCNG1;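 also: natural log of median RNA to DNA barcode read ratio; higher means stronger binding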
T3 chain: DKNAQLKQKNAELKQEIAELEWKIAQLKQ

4H3907-bA = target: T4, 4H3907-bA; assay: two-hybrid library CCNG1;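 also: natural log of median RNA to DNA barcode read ratio; higher means stronger binding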
T4 chain: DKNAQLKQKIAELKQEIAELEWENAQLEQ

P4A-bH = target: T5, P4A-bH; assay: two-hybrid library CCNG1;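 also: natural log of median RNA to DNA barcode read ratio; higher means stronger binding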
T5 chain: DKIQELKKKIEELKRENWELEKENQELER

4H3165-AA = target: T6, 4H3165-AA; assay: two-hybrid library CCmax; details: mean of both orientations;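 also: natural log of median RNA to DNA barcode read ratio; higher means stronger binding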
T6 chain: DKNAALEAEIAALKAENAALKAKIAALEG

4H2109-AA = target: T7, 4H2109-AA; assay: two-hybrid library CCmax; details: mean of both orientations
T7 chain: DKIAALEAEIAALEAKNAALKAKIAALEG

4H3590-AA = target: T8, 4H3590-AA; assay: two-hybrid library CCmax; details: mean of both orientations
T8 chain: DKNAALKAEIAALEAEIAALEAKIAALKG

4H3753-AA = target: T9, 4H3753-AA; assay: two-hybrid library CCmax; details: mean of both orientations
T9 chain: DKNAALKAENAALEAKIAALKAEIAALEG

4H1597-AA = target: T10, 4H1597-AA; assay: two-hybrid library CCmax
T10 chain: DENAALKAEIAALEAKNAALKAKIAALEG

4H710-AA = target: T11, 4H710-AA; assay: two-hybrid library CCmax; details: mean of both orientations
T11 chain: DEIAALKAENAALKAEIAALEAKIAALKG

4H629-AA = target: T12, 4H629-AA; assay: two-hybrid library CCmax; details: mean of both orientations
T12 chain: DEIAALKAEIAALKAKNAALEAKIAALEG

4H2330-AA = target: T13, 4H2330-AA; assay: two-hybrid library CCmax; details: mean of both orientations
T13 chain: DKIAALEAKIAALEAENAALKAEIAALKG

4H1842-AA = target: T14, 4H1842-AA; assay: two-hybrid library CCmax; details: mean of both orientations
T14 chain: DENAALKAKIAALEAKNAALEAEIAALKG

4H570-AA = target: T15, 4H570-AA; assay: two-hybrid library CCmax; details: mean of both orientations
T15 chain: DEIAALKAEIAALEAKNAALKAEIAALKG

4H2253-AA = target: T16, 4H2253-AA; assay: two-hybrid library CCmax; details: mean of both orientations
T16 chain: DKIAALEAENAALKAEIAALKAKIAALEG

4H930-AA = target: T17, 4H930-AA; assay: two-hybrid library CCmax
T17 chain: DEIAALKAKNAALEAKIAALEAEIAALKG

4H850-AA = target: T18, 4H850-AA; assay: two-hybrid library CCmax; details: mean of both orientations
T18 chain: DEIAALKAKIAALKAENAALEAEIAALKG

4H3395-AA = target: T19, 4H3395-AA; assay: two-hybrid library CCmax; details: mean of both orientations
T19 chain: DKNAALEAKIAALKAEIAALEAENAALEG

4H2649-AA = target: T20, 4H2649-AA; assay: two-hybrid library CCmax; details: mean of both orientations
T20 chain: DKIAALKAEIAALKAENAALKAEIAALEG

4H94-AA = target: T21, 4H94-AA; assay: two-hybrid library CCmax; details: mean of both orientations
T21 chain: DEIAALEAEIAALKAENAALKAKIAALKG

4H891-AA = target: T22, 4H891-AA; assay: two-hybrid library CCmax; details: mean of both orientations
T22 chain: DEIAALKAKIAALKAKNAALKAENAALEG

4H3381-AA = target: T23, 4H3381-AA; assay: two-hybrid library CCmax
T23 chain: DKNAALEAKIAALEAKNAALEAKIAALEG

4H3120-AA = target: T24, 4H3120-AA; assay: two-hybrid library CCmax; details: mean of both orientations
T24 chain: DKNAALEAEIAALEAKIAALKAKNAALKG

4H2473-AA = target: T25, 4H2473-AA; assay: two-hybrid library CCmax; details: mean of both orientations
T25 chain: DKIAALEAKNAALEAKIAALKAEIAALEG

4H485-AA = target: T26, 4H485-AA; assay: two-hybrid library CCmax; details: mean of both orientations
T26 chain: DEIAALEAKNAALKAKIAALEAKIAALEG

4H174-AA = target: T27, 4H174-AA; assay: two-hybrid library CCmax; details: mean of both orientations
T27 chain: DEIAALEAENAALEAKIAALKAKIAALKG

4H458-AA = target: T28, 4H458-AA; assay: two-hybrid library CCmax; details: mean of both orientations
T28 chain: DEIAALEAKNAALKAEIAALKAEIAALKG

4H1877-AA = target: T29, 4H1877-AA; assay: two-hybrid library CCmax; details: mean of both orientations
T29 chain: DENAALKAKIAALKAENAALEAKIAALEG

4H2438-AA = target: T30, 4H2438-AA; assay: two-hybrid library CCmax; details: mean of both orientations
T30 chain: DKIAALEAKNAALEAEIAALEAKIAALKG

4H2274-AA = target: T31, 4H2274-AA; assay: two-hybrid library CCmax; details: mean of both orientations
T31 chain: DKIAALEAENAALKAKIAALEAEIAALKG

4H3009-AA = target: T32, 4H3009-AA; assay: two-hybrid library CCmax; details: mean of both orientations
T32 chain: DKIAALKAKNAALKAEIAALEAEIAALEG

4H3697-AA = target: T33, 4H3697-AA; assay: two-hybrid library CCmax; details: mean of both orientations
T33 chain: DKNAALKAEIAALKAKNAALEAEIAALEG

4H745-AA = target: T34, 4H745-AA; assay: two-hybrid library CCmax; details: mean of both orientations
T34 chain: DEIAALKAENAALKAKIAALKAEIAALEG

4H310-AA = target: T35, 4H310-AA; assay: two-hybrid library CCmax; details: mean of both orientations
T35 chain: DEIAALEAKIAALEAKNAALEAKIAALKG

4H3410-AA = target: T36, 4H3410-AA; assay: two-hybrid library CCmax; details: mean of both orientations
T36 chain: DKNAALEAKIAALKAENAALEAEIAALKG

4H3865-AA = target: T37, 4H3865-AA; assay: two-hybrid library CCmax; details: mean of both orientations
T37 chain: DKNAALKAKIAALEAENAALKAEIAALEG

4H2725-AA = target: T38, 4H2725-AA; assay: two-hybrid library CCmax; details: mean of both orientations
T38 chain: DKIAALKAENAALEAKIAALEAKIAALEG

4H2162-AA = target: T39, 4H2162-AA; assay: two-hybrid library CCmax; details: mean of both orientations
T39 chain: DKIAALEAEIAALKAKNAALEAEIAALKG

4H1626-AA = target: T40, 4H1626-AA; assay: two-hybrid library CCmax; details: mean of both orientations
T40 chain: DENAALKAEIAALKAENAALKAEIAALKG

4H171-AA = target: T41, 4H171-AA; assay: two-hybrid library CCmax; details: mean of both orientations
T41 chain: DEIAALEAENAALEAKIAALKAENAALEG

4H536-AA = target: T42, 4H536-AA; assay: two-hybrid library CCmax; details: mean of both orientations
T42 chain: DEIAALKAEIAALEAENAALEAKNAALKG

4H909-AA = target: T43, 4H909-AA; assay: two-hybrid library CCmax; details: mean of both orientations
T43 chain: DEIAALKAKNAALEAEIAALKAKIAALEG

4H797-AA = target: T44, 4H797-AA; assay: two-hybrid library CCmax; details: mean of both orientations
T44 chain: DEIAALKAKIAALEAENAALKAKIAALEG

4H3130-AA = target: T45, 4H3130-AA; assay: two-hybrid library CCmax; details: mean of both orientations
T45 chain: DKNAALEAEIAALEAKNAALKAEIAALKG

4H1864-AA = target: T46, 4H1864-AA; assay: two-hybrid library CCmax; details: mean of both orientations
T46 chain: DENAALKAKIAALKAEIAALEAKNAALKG

4H2865-AA = target: T47, 4H2865-AA; assay: two-hybrid library CCmax; details: mean of both orientations
T47 chain: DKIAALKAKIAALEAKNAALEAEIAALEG

4H2389-AA = target: T48, 4H2389-AA; assay: two-hybrid library CCmax; details: mean of both orientations
T48 chain: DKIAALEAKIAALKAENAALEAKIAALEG

4H2698-AA = target: T49, 4H2698-AA; assay: two-hybrid library CCmax; details: mean of both orientations
T49 chain: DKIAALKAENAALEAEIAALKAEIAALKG

4H3016-AA = target: T50, 4H3016-AA; assay: two-hybrid library CCmax; details: mean of both orientations
T50 chain: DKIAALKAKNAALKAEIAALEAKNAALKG

B1: 4H3592-bA (peptide)
chain: DKNAQLKQEIAELEQEIAELEWKNAQLKQ
- interaction score (4H3592-bA): -0.131
- interaction score (4H3601-bA): -0.03
- interaction score (4H4038-bA): -0.458
- interaction score (4H3907-bA): 0.467
- interaction score (P4A-bH): 1.36

B2: 4H1597-AA (peptide)
chain: DENAALKAEIAALEAKNAALKAKIAALEG
- interaction score (4H3165-AA): -0.486
- interaction score (4H2109-AA): -1.06
- interaction score (4H3590-AA): 0.533
- interaction score (4H3753-AA): -0.89
- interaction score (4H1597-AA): 0.478
- interaction score (4H710-AA): -1.99
- interaction score (4H629-AA): 0.0113
- interaction score (4H2330-AA): -1.59
- interaction score (4H1842-AA): -0.303
- interaction score (4H570-AA): -1.39
- interaction score (4H2253-AA): -1.29
- interaction score (4H930-AA): -1.69
- interaction score (4H850-AA): 1.96
- interaction score (4H3395-AA): -1.14
- interaction score (4H2649-AA): -0.826
- interaction score (4H94-AA): -0.751
- interaction score (4H891-AA): -1.56
- interaction score (4H3381-AA): -0.659
- interaction score (4H3120-AA): -1.49
- interaction score (4H2473-AA): -1.3
- interaction score (4H485-AA): -1.53
- interaction score (4H174-AA): -0.236
- interaction score (4H458-AA): -1.71
- interaction score (4H1877-AA): 2.43
- interaction score (4H2438-AA): -0.641
- interaction score (4H2274-AA): -1.74
- interaction score (4H3009-AA): -1.02
- interaction score (4H3697-AA): 0.353
- interaction score (4H745-AA): -1.15
- interaction score (4H310-AA): -0.161
- interaction score (4H3410-AA): 2
- interaction score (4H3865-AA): 0.833
- interaction score (4H2725-AA): 0.827
- interaction score (4H2162-AA): -1.31
- interaction score (4H1626-AA): -1.36
- interaction score (4H171-AA): -0.742
- interaction score (4H536-AA): -0.234
- interaction score (4H909-AA): -1.1
- interaction score (4H797-AA): 0.0984
- interaction score (4H3130-AA): -1.55
- interaction score (4H1864-AA): 0.43
- interaction score (4H2865-AA): 0.229
- interaction score (4H2389-AA): 2.15
- interaction score (4H2698-AA): -0.556
- interaction score (4H3016-AA): -1.4
